According to patent US20250262297A1, “ALLERGY ANTIGEN AND EPITOPE THEREOF” (HOYU CO., LTD., priority 2017, published 2025):

Test system: IgE antibodies from soybean-allergic patients
Assay: Immunoblotting of two-dimensional electrophoresis pattern of soybean proteins with patient serum
Type: binding, human
Settings: spot in 2D electrophoresis gel of soybean proteins; patient serum compared with healthy subject serum
From the text: Transfer to membrane was done using the following transfer system and transfer buffer. • Transfer system: XCell SureLock Mini-Cell and XCell II Blot Module (produced by Life Technologies) • Transfer buffer: NuPAGE Transfer Buffer (X20) (produced by Life Technologies), used in a form diluted 20-fold with milliQ water.
To be specific, proteins in the two-dimensional electrophoresis gels were transferred to a membrane (PVDF membrane) according to the following procedure. • (1) The PVDF membrane was immersed in 100% methanol followed by milliQ water, and then moved into the transfer buffer to hydrophilize the PVDF membrane. • (2) After sponge, filter paper, the gels treated by second-dimensional SDS-PAGE, the hydrophilized PVDF membrane, filter paper, and sponge were put in place in this order, the transfer system was energized at a constant voltage of 30 V for one hour.
Immunoblotting of the membrane was carried out using, as a primary antibody, a serum sample from a patient with a soybean allergy or a serum sample from a healthy subject.
Immunoblotting of the membrane was carried out according to the following procedure. • (1) The transferred membrane was shaken in a 5% skim milk/PBST solution (a PBS buffer containing 0.3% Tween 20 nonionic surfactant) at room temperature for one hour. • (2) The membrane was left to stand in a solution of 3% primary antibody serum in 5% skim milk/PBST at room temperature for one hour. • (3) The membrane was washed with a PBST solution (5 min.×3 times). • (4) The membrane was left to stand in a 1:2500 dilution of the secondary antibody, anti-human IgE-HRP (horseradish peroxidase), with a 3% skim milk/PBST solution at room temperature for one hour. • (5) The membrane was washed with a PBST solution (5 min.×3 times). • (6) The membrane was left to stand in Pierce Western Blotting Substrate Plus (produced by Thermo Fisher Scientific) for 5 minutes.
The membrane obtained through the foregoing series of treatments was subjected to fluorescent image scanning on Typhoon 9400 (produced by GE).
The immunoblots obtained with the serum from the soybean-allergic patient were compared with those obtained with the control serum from the healthy subject.

| specific binding to IgE antibodies from soybean-allergic patients | Molecule |
| --- | --- |
| specific binding | uncharacterized protein LOC100813859 (protein) MASEESQNKPPSEQSTTELITSAKLVAEAAQSALKSDSDKVDKAKVADAAGDLLDAAGKYGKLDDKQGIGQYVDKAADYLHNYQGDNTTAPSQPAESKGEESGGGLGGLANLAGGFFKK |
| specific binding | probable fructokinase-4 (protein) MALNNGVPATGTGLIVSFGEMLIDFVPTVSGVSLAEAPGFLKAPGGAPANVAIAVSRLGGKAAFVGKLGDDEFGHMLAGILKENGVRADGINFDQGARTALAFVTLRADGEREFMFYRNPSADMLLKPEELNLELIRSAKVFHYGSISLIVEPCRSAHLKAMEVAKESGCLLSYDPNLRLPLWPSAEEARKQILSIWEKADLIKVSDAELEFLTGSDKIDDESALSLWHPNLKLLLVTLGEHGSRYYTKSFKGSVDAFHVNTVDTTGAGDSFVGALLAKIVDDQSILEDEPRLREVLKFANACGAITTTQKGAIPALPKEEAALKLIKGGS |
| specific binding | alcohol dehydrogenase 1 (protein, Glycine max, spot also identified as alcohol dehydrogenase 1-like) MSSSTVGQVIKCKAAVSWEAGKPLVIEEVEVAPPQAGEVRLKILYTSLCHTDVYFWEAKGQTPLFPRIFGHEAGGIVESVGEGVTHLKPGDHALPVFTGECGECPHCKSEESNMCDLLRINTDRGVMIHDSQTRFSIKGQPIYHFVGTSTFSEYTVVHAGCVAKVNPAAPLDKICVLSCGICTGLGATINVAKPKPGSSVAIFGLGAVGLAAAEGARISGASRIIGVDLVSSRFEEAKKFGVNEFVNPKDHDKPVQEVIAAMTNGGVDRAVECTGSIQAMISAFECVHDGWGVAVLVGVPNKDDAFKTHPVNFLNERTLKGTFYGNYKPRTDLPSVVEKYMNGELELEKFITHTVPFSEINKAFDYMLKGESIRCIIRMGE |
| specific binding | 14-3-3-like protein (protein) MAAAPSPREENVYMAKLAEQAERYEEMVEFMEKVSAAADNEELTVEERNLLSVAYKNVIGARRASWRIISSIEQKEESRGNEDHVSVIRDYRSKIESELSNICDGILKLLDSRLIPSASSGDSKVFYLKMKGDYHRYLAEFKTGAERKEAAESTLSAYKAAQDIANAELPPTHPIRLGLALNFSVFYYEILNSPDRACNLAKQAFDEAIAELDTLGEESYKDSTLIMQLLRDNLTLWTSDMQDDGADEIKEAAPKPDDQ |
| specific binding | uncharacterized protein At3g49720-like isoform X2 (protein) MTRKQASSTRRGGLSGVLHSKSKSSPLLSISLVLFVAILLILYACIGSGILGGRKDVISMAEDDFSCTFEVPSAIPVLKNAYGGSMKNVLHVGPESCSVVSKFLREGETEAWGVEPYDLDDADRNCKALVQKGIIRVADIKFPLPYRVKSFSHVIVSDALDYLSPKYINKTLPELARVSSDGIIIFTGYPGQPRAKIAPLSKFGRPHRC |
| specific binding | phosphoglycerate kinase, cytosolic (protein, Glycine max) MATKRSVGTLKEGDLKGKRVFVRVDLNVPLDDNLNITDDTRVRAAVPTIKYLTGYGAKVILSSHLGRPKGVTPKYSLKPLVPRLSQLLGIEVTMANDSIGEEVEKLVTQLPEGGVLLLENVRFYKEEEKNDPEFAKKLASLADLYVNDAFGTAHRAHASTEGVAKYLKPSVAGFLMQKELDYLVGAVSNPKRPFAAIVGGSKVSSKIGVIESLLEKVNVLLLGGGMIFTFYKAQGYSVGSSLVEEDKLSLATTLLEKAKAKGVSLLLPTDVVIADKFAADANSKTVPASSIPDGWMGLDIGPDSIKTFGEALDTTQTIIWNGPMGVFEFDKFATGTEAIAKKLAELSGKGVTTIIGGGDSVAAVEKVGLADKMSHISTGGGASLELLEGKQLPGVLALDDA |
| specific binding | eukaryotic translation initiation factor 5A-2 (protein, Glycine max, spot also identified as uncharacterized protein LOC100305510) MSDEEHHFESKADAGASKTYPQQAGTIRKNGYIVIKGRPCKVVEVSTSKTGKHGHAKCHFVGIDIFTAKKLEDIVPSSHNCDVPHVNRTDYQLIDIAEDGFLSLLTENGNTKDDLKLPTDESLLTQIKDGFAEGKDLVVSVMSAMGEEQICALKDIGPKN |
| specific binding | seed maturation protein PM22 (protein) MSQLLDKAKNFVSEKVNDMAKPEASVTDVDFKRVSKDNVEYLAKVSVRNPYSTSIPICEINYSFKSASREIASGKIPDPGSLKAKDTTMVDVPVKVPYSILMSLAKDIGADWDIDYQLDLGLVIDVPVIGIFTIPLSQKGEIKLPTLSTMFA |
| specific binding | uncharacterized protein LOC100306570 (protein) MASQSNTKSVHDFTVKDARGNNVNLADYKGKVLLIVNVASQCGLTNSNYTELNQLYEKYKGKGLEILAFPCNQFGAQEPGTNEEIVEFACTRFKAEFPIFDKVDVNGDNAAPLYKFLKSSKGGLFGDSIKWNFSKFLVDKDGNVVDRYAPTTSPLSIEKDIKKLLDA |
| specific binding | uncharacterized protein LOC100499771 (protein, Glycine max, spot also identified as hypothetical protein GLYMA_09G192800) MAPIAVGDVIPDGILAYLDEENKPQTVSIHSLAAGKKVIIFGVPGAFTPTCSLKHVPGFIERAEELKGKGVDEIICISVNDPFVMNSWAKTFPENKHVKFLADGAAKYTNALGLELDLTDKGLGVRSKRFALLVEDLKVKVANVESGGEFTISSAEEIIKAL |
| specific binding | superoxide dismutase [Mn], mitochondrial (protein, Glycine max, spot also identified as hypothetical protein GLYMA_04G221300) MAARALLTRKTLATVLRNDAKPIIGVGITAAATHSRGLHVYTLPDLDYDYGALEPAISGDIMQLHHQKHHQTYITNYNKALEQLQDAIAKKDSSAVVKLQGAIKFNGGGHVNHSIFWKNLAPVREGGGEPPKGSLGWAIDTHFGSFEALIQKVNAEGAALQGSGWVWLGLDKELKRLVVETTANQDPLVTKGPNLVPLIGIDVWEHAYYLQYKNVRPDYLKNIWKVINWKYASEVYEKESS |
| specific binding | P24 oleosin isoform A (protein, Glycine max) MTTQVPPHSVQVHTTTHRYEAGVVPPGARFEPPRYEAGVKAPSIYHSERGPTTSQVLAVLAGLPVGGILLLLAGLTLAGTLTGLAVATPLFVLFSPVLVPATVAIGLAVAGFLTSGAFGLTALSSFSWILNYIRETQPASENLAAAAKHHLAEAAEYVGQKTKEVGQKTKEVGQDIQSKAQDTREAAARDAREAAARDAREAAARDAKVEARDVKRTTVTATTATA |
| specific binding | 35 kDa seed maturation protein isoform X1 (protein) MASRQQFKEDRAEAAAKLAAKDIGDINRTNERDEGYDLHDEANFKQARAEAAAKLAAKDLEDANRLRDNTFNTWKEQHQHDENKPGVIGSMFRAAKEAVVGKPHHEEVYAKETKMGEYSDYATQKARETKQKAGEYTDYAAQKAKETKDYAAEKAKNAKDTTVQKAGEYKDYTAEKAKNAKDTTVQKAGEYKDYTAEKAIEGKDSAVGKLGELKESAADAAKRAMGFFTGGNKDQTREEEEETRRSMQEVRVQDKEYGTGRGTGEKLVIKMEESRPGAVADALKAANRAMDGDMEEEGVLHVERRREKM |
| specific binding | seed maturation protein PM34 (protein, Glycine max, spot also identified as uncharacterized protein LOC100809384 and hypothetical protein GLYMA_10G155300) MASGEQKFPPQQQQTQPGKEHAMTPVPQFTSPDYKPSNKLQGKIALVTGGDSGIGRAVCNLFALEGATVAFTYVKGHEDKDARDTLEMIKRAKTSDAKDPMAIASDLGYDENCKRVVDEVVSAYGCIDILVNNAAEQYECGTVEDIDEPRLERVFRTNIFSYFFMARHALKHMKEGSSIINTTSVNAYKGHAKLLDYTSTKGAIVAYTRGLALQLVSKGIRVNGVAPGPIWTPLIPASFKEEETAQFGAQVPMKRAGQPIEVAPSYVFLASNQCSSYITGQVLHPNGGTVVNG |
| specific binding | ATP synthase subunit O, mitochondrial-like (protein) MALCNRVRSGISLFTKSTFLTSQRSTLQRSLVAPFISLASRNYANVPGQKETKVKVPLALFGGSGNYASALYIASVKANAVEKVETELLQFVEAVKNSPIFSQFIRDLSVAKDVRVKVIQDICGEAKFSDVTKNFLVIVAENGRLKNIDTIAKRFAQLSMAYKGEVQATVTTVVPLPPEEEKALKETLQEIIGSGAKVHLEQKIDPSILGGLVLEFSQKVFDMSIKTRAQQMERILREPVSIANI |
